Tested on: peptide library, one residue held at a place counted from the S/T acceptor
Assay: relative phosphorylation of the sub-library (ratio to the mean residue at this position); higher = residue favoured
Settings: human
Method in brief: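 Each biotinylated degenerate peptide sub-library fixed one residue at one position around a central Ser/Thr and was incubated with a purified recombinant kinase, a human or orthologue construct, in 384-well plates. The 90 min reactions, under kinase-specific conditions, contained 50 μM peptide and 50 μM ATP spiked with γ-32P-ATP. Phosphorylation was read by phosphorimaging spots on streptavidin membranes and quantifying them by densitometry. Relative sub-library phosphorylation expresses each value as a ratio to the mean residue at that position.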

Sequence of MAPK10, construct: aa1-426 (P53779 1-426, looked up): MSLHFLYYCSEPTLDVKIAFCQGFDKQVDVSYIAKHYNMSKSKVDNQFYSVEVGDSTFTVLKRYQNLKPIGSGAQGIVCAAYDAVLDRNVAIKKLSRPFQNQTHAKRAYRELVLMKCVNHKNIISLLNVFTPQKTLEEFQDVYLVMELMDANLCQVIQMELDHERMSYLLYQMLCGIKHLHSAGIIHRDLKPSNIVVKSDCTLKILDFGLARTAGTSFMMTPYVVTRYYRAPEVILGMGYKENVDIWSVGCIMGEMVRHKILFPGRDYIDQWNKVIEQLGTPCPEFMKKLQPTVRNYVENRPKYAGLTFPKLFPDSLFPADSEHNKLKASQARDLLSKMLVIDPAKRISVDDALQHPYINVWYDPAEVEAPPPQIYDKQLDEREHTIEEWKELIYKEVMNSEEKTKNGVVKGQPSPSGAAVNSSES
Sequence of CDK6, construct: Full length (Q00534 whole entry, looked up): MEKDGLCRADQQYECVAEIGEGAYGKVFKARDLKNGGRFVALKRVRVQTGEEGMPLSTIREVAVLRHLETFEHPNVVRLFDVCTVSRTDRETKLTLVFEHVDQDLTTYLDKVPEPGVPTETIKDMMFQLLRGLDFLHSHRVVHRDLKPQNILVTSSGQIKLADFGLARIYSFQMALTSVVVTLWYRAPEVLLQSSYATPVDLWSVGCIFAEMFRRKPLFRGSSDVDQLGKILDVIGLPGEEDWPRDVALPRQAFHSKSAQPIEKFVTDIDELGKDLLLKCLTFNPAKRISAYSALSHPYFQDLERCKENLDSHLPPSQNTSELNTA
Sequence of PRKAA1, construct: Full length (Q13131 whole entry, looked up): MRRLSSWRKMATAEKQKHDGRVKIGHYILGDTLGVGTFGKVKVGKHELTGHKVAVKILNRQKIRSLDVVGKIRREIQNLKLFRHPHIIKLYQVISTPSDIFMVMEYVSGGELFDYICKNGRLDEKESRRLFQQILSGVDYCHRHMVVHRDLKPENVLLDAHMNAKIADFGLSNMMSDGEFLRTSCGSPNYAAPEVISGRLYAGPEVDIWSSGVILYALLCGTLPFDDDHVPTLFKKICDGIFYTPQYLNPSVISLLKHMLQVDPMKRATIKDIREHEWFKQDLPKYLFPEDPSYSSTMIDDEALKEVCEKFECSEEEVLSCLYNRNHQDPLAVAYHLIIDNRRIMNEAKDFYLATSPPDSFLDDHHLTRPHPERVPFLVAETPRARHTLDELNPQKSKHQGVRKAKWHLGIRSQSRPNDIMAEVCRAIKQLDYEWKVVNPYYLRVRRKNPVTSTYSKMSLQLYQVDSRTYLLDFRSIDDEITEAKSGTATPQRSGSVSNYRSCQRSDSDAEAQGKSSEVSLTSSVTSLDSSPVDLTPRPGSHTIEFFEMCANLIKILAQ
Sequence of PRKD3, construct: Full length (O94806 whole entry, looked up): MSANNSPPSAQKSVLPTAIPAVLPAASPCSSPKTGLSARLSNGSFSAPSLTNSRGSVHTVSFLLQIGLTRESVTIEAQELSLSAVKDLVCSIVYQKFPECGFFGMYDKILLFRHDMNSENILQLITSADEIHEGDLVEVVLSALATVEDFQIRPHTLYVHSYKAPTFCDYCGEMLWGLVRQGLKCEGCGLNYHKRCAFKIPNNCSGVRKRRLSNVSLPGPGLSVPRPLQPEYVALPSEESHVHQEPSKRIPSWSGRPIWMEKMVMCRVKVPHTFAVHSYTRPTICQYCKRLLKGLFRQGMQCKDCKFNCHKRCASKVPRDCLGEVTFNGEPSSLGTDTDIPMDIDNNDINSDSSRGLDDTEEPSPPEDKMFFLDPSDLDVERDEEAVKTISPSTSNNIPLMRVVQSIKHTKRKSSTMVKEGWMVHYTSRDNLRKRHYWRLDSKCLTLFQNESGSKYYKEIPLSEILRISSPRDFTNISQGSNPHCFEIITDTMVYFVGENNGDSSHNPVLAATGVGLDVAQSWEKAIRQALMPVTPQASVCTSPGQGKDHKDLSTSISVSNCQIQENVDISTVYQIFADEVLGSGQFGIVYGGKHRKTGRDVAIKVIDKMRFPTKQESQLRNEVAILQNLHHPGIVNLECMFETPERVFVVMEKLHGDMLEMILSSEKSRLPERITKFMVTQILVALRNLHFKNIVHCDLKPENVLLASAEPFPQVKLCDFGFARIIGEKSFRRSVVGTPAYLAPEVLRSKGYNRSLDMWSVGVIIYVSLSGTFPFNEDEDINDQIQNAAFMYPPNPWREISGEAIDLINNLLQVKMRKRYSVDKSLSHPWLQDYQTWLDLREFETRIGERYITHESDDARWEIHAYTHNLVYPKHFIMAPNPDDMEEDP

PRKAA1, construct: Full length (from UniProt Q13131)
relative phosphorylation
Settings | at +1 | at +2 | at +3 | at +4 | at -1 | at -2 | at -3 | at -4 | at -5
A fixed | 0.927 | 1.41 | 0.812 | 0.574 | 1.05 | 1.27 | 0.845 | 1.21 | 0.908
D fixed | 0.609 | 0.529 | 1.53 | 0.606 | 0.666 | 0.413 | 0.32 | 0.497 | 0.381
E fixed | 0.781 | 0.496 | 0.935 | 0.516 | 0.578 | 0.475 | 0.453 | 0.63 | 0.374
F fixed | 1.63 | 0.899 | 1.1 | 1.25 | 0.643 | 0.718 | 0.516 | 0.682 | 1.2
G fixed | 0.773 | 0.759 | 0.902 | 0.659 | 1.4 | 1.05 | 0.889 | 1.2 | 0.857
H fixed | 1.18 | 1.48 | 1.5 | 0.757 | 1.11 | 1.28 | 1.28 | 1.19 | 0.816
I fixed | 0.75 | 1.38 | 0.705 | 2.17 | 0.379 | 0.944 | 0.402 | 0.659 | 1.41
K fixed | 1 | 0.723 | 1.15 | 0.753 | 1.93 | 1.73 | 2.54 | 2.1 | 1.35
L fixed | 0.813 | 1.23 | 0.803 | 2.67 | 0.63 | 0.541 | 0.45 | 0.643 | 1.63
M fixed | 1.49 | 0.855 | 0.833 | 1.89 | 0.972 | 0.638 | 0.609 | 0.895 | 1.5
N fixed | 0.86 | 1.08 | 1.55 | 0.775 | 1.12 | 1.7 | 0.869 | 0.947 | 0.724
P fixed | 0.231 | 1.31 | 0.39 | 0.767 | 1.32 | 0.783 | 1.04 | 1.19 | 0.944
Q fixed | 1.23 | 0.893 | 0.996 | 0.704 | 1.31 | 0.92 | 0.879 | 0.888 | 0.847
R fixed | 1.24 | 0.649 | 1.09 | 0.691 | 1.66 | 1.81 | 4.12 | 2.17 | 1.71
V fixed | 0.893 | 1.48 | 0.65 | 0.969 | 0.589 | 1.3 | 0.477 | 0.728 | 0.784
W fixed | 1.35 | 0.922 | 1.19 | 0.693 | 0.782 | 0.705 | 0.633 | 0.681 | 0.731
Y fixed | 1.23 | 0.897 | 0.866 | 0.556 | 0.87 | 0.716 | 0.677 | 0.705 | 0.836
pThr fixed | 0.737 | 0.513 | 0.427 | 0.606 | 0.418 | 0.679 | 0.632 | 0.724 | 0.726
pTyr fixed | 0.604 | 0.5 | 0.601 | 0.485 | 0.685 | 0.568 | 0.51 | 0.492 | 0.778

PRKD3, construct: Full length (from UniProt O94806)
relative phosphorylation
Settings | at +1 | at +2 | at +3 | at +4 | at -1 | at -2 | at -3 | at -4 | at -5
A fixed | 0.865 | 1.03 | 0.829 | 0.85 | 0.845 | 1.21 | 1.03 | 1.31 | 0.989
D fixed | 0.493 | 0.636 | 0.664 | 0.709 | 0.598 | 0.341 | 0.231 | 0.402 | 0.344
E fixed | 0.444 | 0.536 | 0.561 | 0.66 | 0.486 | 0.418 | 0.272 | 0.711 | 0.332
F fixed | 1.09 | 1.07 | 1 | 1.09 | 0.812 | 0.56 | 0.417 | 0.797 | 0.895
G fixed | 0.727 | 1.06 | 1.17 | 1.21 | 0.6 | 0.453 | 0.375 | 1.21 | 0.563
H fixed | 1.33 | 1.36 | 1.22 | 1.29 | 1.15 | 0.839 | 0.572 | 1.14 | 0.525
I fixed | 1.02 | 0.628 | 0.744 | 0.795 | 0.526 | 0.496 | 0.321 | 0.678 | 1.11
K fixed | 1.31 | 1.27 | 1.21 | 1.22 | 2.07 | 2.85 | 2.2 | 1.98 | 0.895
L fixed | 1.06 | 0.824 | 0.957 | 0.908 | 1.18 | 0.867 | 0.359 | 0.809 | 3.37
M fixed | 1.16 | 0.929 | 0.883 | 0.854 | 1.03 | 1.43 | 0.444 | 1.15 | 0.774
N fixed | 1.48 | 1.26 | 1.02 | 1.1 | 1.38 | 0.795 | 0.418 | 0.649 | 0.483
P fixed | 0.453 | 1.24 | 1.72 | 1.31 | 1.1 | 0.374 | 0.478 | 0.476 | 1.08
Q fixed | 1.08 | 0.877 | 0.984 | 1.1 | 0.889 | 1.83 | 0.588 | 1.16 | 0.866
R fixed | 1.28 | 1.38 | 1.05 | 0.774 | 1.79 | 2.58 | 8.02 | 2.12 | 1.8
V fixed | 0.988 | 0.718 | 0.812 | 0.774 | 0.751 | 0.778 | 0.333 | 0.85 | 1.61
W fixed | 0.885 | 1.05 | 0.991 | 1.31 | 0.708 | 0.526 | 0.436 | 0.638 | 0.544
Y fixed | 1.35 | 1.12 | 1.19 | 1.04 | 1.08 | 0.657 | 0.51 | 0.934 | 0.827
pThr fixed | 0.532 | 0.513 | 0.622 | 0.51 | 0.321 | 0.349 | 0.266 | 0.508 | 0.377
pTyr fixed | 0.589 | 0.609 | 0.669 | 0.608 | 0.662 | 0.409 | 0.495 | 0.511 | 0.572

CDK6, construct: Full length (from UniProt Q00534)
relative phosphorylation
Settings | at +1 | at +2 | at +3 | at +4 | at -1 | at -2 | at -3 | at -4 | at -5
A fixed | 0.249 | 0.659 | 0.594 | 0.709 | 0.827 | 0.895 | 1.21 | 1.02 | 1.04
D fixed | 0.113 | 0.259 | 0.209 | 0.504 | 0.48 | 0.316 | 0.476 | 0.884 | 0.866
E fixed | 0.11 | 0.238 | 0.174 | 0.424 | 0.473 | 0.406 | 0.66 | 0.859 | 0.909
F fixed | 0.353 | 0.811 | 0.529 | 0.795 | 0.908 | 1.1 | 0.978 | 0.852 | 0.979
G fixed | 1.39 | 0.731 | 0.681 | 1.15 | 1.29 | 0.73 | 1.42 | 1.04 | 1.23
H fixed | 0.295 | 1.24 | 1.06 | 1.23 | 1.11 | 1.16 | 1.2 | 1.11 | 1.18
I fixed | 0.308 | 1.04 | 0.461 | 0.746 | 0.493 | 0.878 | 0.932 | 0.757 | 0.669
K fixed | 0.303 | 1.83 | 3.16 | 1.64 | 1.23 | 0.788 | 1.03 | 1.35 | 1.57
L fixed | 0.344 | 1.1 | 0.458 | 0.785 | 1.14 | 1.29 | 1.08 | 0.85 | 0.773
M fixed | 0.328 | 1.01 | 0.581 | 0.891 | 1.28 | 1.5 | 1.03 | 0.867 | 0.736
N fixed | 0.211 | 0.885 | 0.747 | 0.957 | 0.746 | 0.783 | 0.827 | 1.19 | 1.04
P fixed | 11.6 | 0.494 | 0.862 | 1.01 | 1.26 | 2.2 | 1.15 | 1.07 | 1.24
Q fixed | 0.258 | 0.905 | 0.702 | 1.03 | 1.04 | 0.894 | 0.865 | 1.05 | 0.99
R fixed | 0.31 | 3.29 | 5 | 2.44 | 1.78 | 0.969 | 1.33 | 1.15 | 1.31
V fixed | 0.315 | 0.956 | 0.513 | 0.724 | 0.64 | 0.835 | 0.886 | 0.673 | 0.68
W fixed | 0.285 | 0.665 | 0.58 | 1.13 | 1.08 | 1.06 | 0.92 | 1.25 | 0.721
Y fixed | 0.24 | 0.887 | 0.688 | 0.829 | 1.23 | 1.19 | 1.02 | 1.05 | 1.06
pThr fixed | 0.326 | 0.502 | 0.433 | 0.336 | 0.25 | 0.548 | 0.725 | 0.882 | 0.934
pTyr fixed | 0.339 | 0.36 | 0.486 | 0.349 | 0.324 | 0.798 | 0.81 | 1.12 | 1.34

MAPK10, construct: aa1-426 (from UniProt P53779)
relative phosphorylation
Settings | at +1 | at +2 | at +3 | at +4 | at -1 | at -2 | at -3 | at -4 | at -5
A fixed | 0.471 | 0.918 | 1.3 | 1.17 | 1.08 | 2.16 | 1.22 | 1.22 | 1.17
D fixed | 0.256 | 1 | 1.44 | 1.34 | 0.89 | 0.958 | 1.36 | 1.39 | 1.42
E fixed | 0.234 | 0.725 | 1.52 | 1.25 | 0.855 | 0.548 | 1.15 | 1.28 | 1.18
F fixed | 0.456 | 0.765 | 0.929 | 0.851 | 0.752 | 0.582 | 1 | 0.854 | 0.875
G fixed | 0.671 | 1.12 | 1.38 | 1.1 | 1.16 | 0.785 | 1.13 | 1.06 | 1.15
H fixed | 0.281 | 1.05 | 1.19 | 1.12 | 1.13 | 0.552 | 1.08 | 1.03 | 0.964
I fixed | 0.351 | 1.26 | 0.596 | 0.783 | 0.662 | 1.25 | 0.735 | 0.705 | 0.738
K fixed | 0.268 | 0.779 | 0.611 | 0.82 | 0.982 | 0.548 | 0.653 | 0.783 | 0.754
L fixed | 0.366 | 1.27 | 0.77 | 0.913 | 1.2 | 1.96 | 0.853 | 0.753 | 0.644
M fixed | 0.369 | 1.76 | 0.922 | 0.888 | 1.27 | 1.07 | 1.06 | 1.01 | 0.722
N fixed | 0.269 | 1.03 | 1.07 | 1.07 | 0.849 | 0.554 | 1.03 | 0.84 | 0.928
P fixed | 11.5 | 0.517 | 0.564 | 1.5 | 1.47 | 2.13 | 1.2 | 1.23 | 1.33
Q fixed | 0.259 | 1.03 | 1 | 1.05 | 1.37 | 0.747 | 0.964 | 1.01 | 1.07
R fixed | 0.269 | 0.848 | 0.945 | 0.893 | 1.01 | 0.612 | 0.883 | 0.923 | 1.07
V fixed | 0.367 | 1.48 | 0.723 | 0.82 | 0.781 | 1.43 | 0.717 | 0.843 | 0.913
W fixed | 0.29 | 0.723 | 1.03 | 0.701 | 0.722 | 0.587 | 1.03 | 1.1 | 0.967
Y fixed | 0.292 | 0.734 | 0.999 | 0.732 | 0.815 | 0.518 | 0.929 | 0.962 | 1.1
pThr fixed | 0.434 | 1.94 | 1.02 | 1.4 | 0.52 | 1.08 | 1.06 | 1.17 | 1.29
pTyr fixed | 0.569 | 1.23 | 1.59 | 1.02 | 0.893 | 0.598 | 1.03 | 1.64 | 1.41

Source: the supplement of paper PMC9876800
